Test results: patent publication US20230079150A1, “METHODS FOR PREVENTION OR TREATMENT OF VIRUS-INDUCED ORGAN INJURY OR FAILURE WITH IL-22 DIMER” (priority 2020, published 2023)

What was measured:
C57BL/6 mice [1] = test: LPS acute lung injury mouse model: histopathology score; type: in vivo
Description: After approval from the Tulane University, Institutional Animal Care and Use Committee (protocol ID 607), equal numbers of male and female, 6-8 week old C57BL/6 mice (Charles River Laboratories, Cambridge, Mass.) were given acute lung injury (ALI) via intra-tracheally administered LPS. After obtaining appropriate depth of anesthesia using isoflurane, the high-dose LPS group (HDG) received 100 μg of LPS administered intra-tracheally. Approximately 30 minutes after LPS administration, 4 μg of F-652 was administered via tail vein injection (n=11), then compared to animals receiving sham injection (n=8) with phosphate-buffered saline (PBS). In the low-dose LPS group (LDG), 33.3 μg of LPS was administered intra-tracheally. F-652 was again administered at 30 minutes (n=9) and compared to sham injected animals (n=9). […]
Immediately after sacrifice, lung tissue from the right lower lobe was fixed in 4% paraformaldehyde and cut into sections. […] Lung injury induced by LPS was assessed by a blinded reviewer with a numerical scoring scale ranging from 0-4. Regions of lung injury in sections were scored for the extent of intimal thickening, alveolitis, and the presence of proteinaceous material in the alveolar space. […]

C57BL/6 mice [2] = test: LPS acute lung injury mouse model: BAL inflammatory mediators (Milliplex cytokine panel); type: in vivo; conditions: day 4
Description: After approval from the Tulane University, Institutional Animal Care and Use Committee (protocol ID 607), equal numbers of male and female, 6-8 week old C57BL/6 mice (Charles River Laboratories, Cambridge, Mass.) were given acute lung injury (ALI) via intra-tracheally administered LPS. After obtaining appropriate depth of anesthesia using isoflurane, the high-dose LPS group (HDG) received 100 μg of LPS administered intra-tracheally. Approximately 30 minutes after LPS administration, 4 μg of F-652 was administered via tail vein injection (n=11), then compared to animals receiving sham injection (n=8) with phosphate-buffered saline (PBS). In the low-dose LPS group (LDG), 33.3 μg of LPS was administered intra-tracheally. F-652 was again administered at 30 minutes (n=9) and compared to sham injected animals (n=9). The Interleukin-22:Fc (F-652) protein is a recombinant fusion protein (F-652) (Evive Biotech, Shanghai, China) with two human IL-22 molecules linked to the Fc portion of human immunoglobulin G2, which extends the half-life of the molecule.
Euthanasia and bronchoalveolar lavage (BAL) was carried out on post-injury day 4. After obtaining appropriate levels of anesthesia with inhaled isoflurane, the trachea was cannulated using a 26 gauge needle and BAL was performed with three successive washes using 1 mL of PBS. Next, a small segment of the left lower lobe was removed and saved for RNA isolation. Finally, 1 cc of 4% paraformaldehyde was injected to the lung for fixation.
The BAL fluid was then centrifuged at 500×gravity for 5 minutes. Cells were obtained from the BAL after centrifuge and cell counts performed. Cells were then affixed to glass slides and stained with Wright's stain. To quantify protein in the BAL supernatant, a Bradford protein assay (Bio-Rad Laboratories) was performed. Protein was quantified by measuring absorbance at 595 nm on a BMG Labtech FLUOstar Optima plate reader. In addition, the BAL supernatant was used to measure pro-inflammatory cytokines using a Milliplex Mouse Cytokine/Chemokine Magnetic Bead Panel (Millipore Sigma). The 32 cytokines measured included Eotaxin, Granulocyte Colony-Stimulating Factor (G-CSF), Granulocyte-Monocyte Colony-Stimulating Factor (GM-CSF), Interferon-γ (IFN-γ), Interleukin-1α (IL-1α), IL-1, IL-2, IL-3, IL-4, IL-5, IL-6, IL-7, IL-9, IL-10, IL-12 (p40 segment), IL-12 (p70 segment), IL-13, IL-15, IL-17, Interferon-γ induced protein 10 (IP-10), keratinocyte chemoattractant (KC), leukemia inhibitory factor (LIF), lipopolysaccharide-induced CXC chemokine (LIX), monocyte chemoattractant protein-1 (MCP-1), macrophage colony-stimulating factor (M-CSF), monokine induced by gamma-interferon (MIG), MIP-1α, macrophage inflammatory protein-1β/CCL4 (MIP-1β), MIP-2, regulated upon activation, normal T-cell expressed and presumably secreted (RANTES), tumor necrosis factor-α (TNF-α), vascular endothelial growth factor (VEGF). Human IL-22 was measured using an IL-22 Human ELISA kit (ThermoFisher Scientific). Mouse IL-22 was measured using an IL-22 Mouse/Rat Quantikine ELISA kit (R&D Systems).

[3] = tested on: H1N1 influenza (A/PR8 strain); type: in vivo, C57BL/6 mice

B1: F-652: recombinant IL-22 dimer consisting of two monomeric subunits each comprising a sequence shown in SEQ ID NO: 24 (protein)
chain 1: APISSHCRLDKSNFQQPYITNRTFMLAKEASLADNNTDVRLIGEKLFHGVSMSERCYLMKQVLNFTLEEVLFPQSDRFQPYMQEVVPFLARLSNRLSTCHIEGDDLHIQRNVQKLKDTVKKLGESGEIKAIGELDLLFMSLRNACIGSGGGSGGGGSGGGGSVECPPCPAPPVAGPSVFLFPPKPKDTLMISRTPEVTCVVVDVSHEDPEVQFNWYVDGVEVHNAKTKPREEQFNSTFRVVSVLTVVHQDWLNGKEYKCKVSNKGLPASIEKTISKTKGQPREPQVYTLPPSREEMTKNQVSLTCLVKGFYPSDIAVEWESNGQPENNYKTTPPMLDSDGSFFLYSKLTVDKSRWQQGNVFSCSVMHEALHNHYTQKSLSLSPGK
chain 2: B1 chain 1
modifications: homodimer
histopathology injury score (scale 0-4) (C57BL/6 mice [1]; high-dose LPS injury, sham 2.0): 1.0
histopathology scores, F-652 treated vs sham (C57BL/6 mice [1]; low dose LPS injury): did not show any difference
C-X-C Motif Chemokine 5 (LIX) in BAL (C57BL/6 mice [2]; high dose LPS, F-652 4 μg i.v.): 0.00 ± 0.00 pg/mL
Eotaxin in BAL (C57BL/6 mice [2]; high dose LPS, F-652 4 μg i.v.): 4.63 ± 2.43 pg/mL
Granulocyte-Macrophage Colony-Stimulating Factor in BAL (C57BL/6 mice [2]; high dose LPS, F-652 4 μg i.v.): 0.00 ± 0.00 pg/mL
Interferon-γ in BAL (C57BL/6 mice [2]; high dose LPS, F-652 4 μg i.v.): 8.08 ± 2.18 pg/mL
Interferon-γ-Induced Protein-10 in BAL (C57BL/6 mice [2]; high dose LPS, F-652 4 μg i.v.): 118.40 ± 43.72 pg/mL
Interleukin-1α in BAL (C57BL/6 mice [2]; high dose LPS, F-652 4 μg i.v.): 69.39 ± 5.91 pg/mL
Interleukin-1β in BAL (C57BL/6 mice [2]; high dose LPS, F-652 4 μg i.v.): 3.48 ± 1.25 pg/mL
Interleukin-2 in BAL (C57BL/6 mice [2]; high dose LPS, F-652 4 μg i.v.): 7.33 ± 0.83 pg/mL
Interleukin-3 in BAL (C57BL/6 mice [2]; high dose LPS, F-652 4 μg i.v.): 1.07 ± 0.02 pg/mL
Interleukin-4 in BAL (C57BL/6 mice [2]; high dose LPS, F-652 4 μg i.v.): 1.09 ± 0.09 pg/mL
Interleukin-5 in BAL (C57BL/6 mice [2]; high dose LPS, F-652 4 μg i.v.): 7.86 ± 1.14 pg/mL
Interleukin-7 in BAL (C57BL/6 mice [2]; high dose LPS, F-652 4 μg i.v.): 1.75 ± 0.18 pg/mL
Interleukin-9 in BAL (C57BL/6 mice [2]; high dose LPS, F-652 4 μg i.v.): 311.8 ± 38.17 pg/mL
Interleukin-12 (p40) in BAL (C57BL/6 mice [2]; high dose LPS, F-652 4 μg i.v.): 7.13 ± 1.89 pg/mL
Interleukin-12 (p70) in BAL (C57BL/6 mice [2]; high dose LPS, F-652 4 μg i.v.): 1.95 ± 1.00 pg/mL
Interleukin-13 in BAL (C57BL/6 mice [2]; high dose LPS, F-652 4 μg i.v.): 10.56 ± 1.49 pg/mL
Interleukin-15 in BAL (C57BL/6 mice [2]; high dose LPS, F-652 4 μg i.v.): 6.10 ± 1.02 pg/mL
Interleukin-17 in BAL (C57BL/6 mice [2]; high dose LPS, F-652 4 μg i.v.): 2.28 ± 0.56 pg/mL
Keratinocyte Chemoattractant/Growth Regulated Oncogene in BAL (C57BL/6 mice [2]; high dose LPS, F-652 4 μg i.v.): 19.54 ± 3.08 pg/mL
Macrophage Colony-Stimulating Factor in BAL (C57BL/6 mice [2]; high dose LPS, F-652 4 μg i.v.): 2.89 ± 1.02 pg/mL
Macrophage Inflammatory Protein-1α in BAL (C57BL/6 mice [2]; high dose LPS, F-652 4 μg i.v.): 45.99 ± 7.56 pg/mL
Macrophage Inflammatory Protein-1β in BAL (C57BL/6 mice [2]; high dose LPS, F-652 4 μg i.v.): 19.42 ± 7.63 pg/mL
Macrophage Inflammatory Protein-2 in BAL (C57BL/6 mice [2]; high dose LPS, F-652 4 μg i.v.): 28.63 ± 5.43 pg/mL
Monocyte Chemoattractant Protein in BAL (C57BL/6 mice [2]; high dose LPS, F-652 4 μg i.v.): 14.66 ± 7.16 pg/mL
Monocyte Induced by Interferon-γ in BAL (C57BL/6 mice [2]; high dose LPS, F-652 4 μg i.v.): 100.60 ± 35.47 pg/mL
Vascular Endothelial Growth Factor in BAL (C57BL/6 mice [2]; high dose LPS, F-652 4 μg i.v.): 12.18 ± 3.03 pg/mL
Interleukin-10 level in BAL fluid (C57BL/6 mice [2]; high-dose LPS, F-652 4 μg tail vein, sham 4.05): 22.10 pg/mL
TNF-α level in BAL fluid (C57BL/6 mice [2]; high-dose LPS, F-652 4 μg tail vein, sham 25.41): 5.87 pg/mL
IL-6 level in BAL fluid (C57BL/6 mice [2]; high-dose LPS, F-652 4 μg tail vein, sham 527.1): 110.6 pg/mL
G-CSF level in BAL fluid (C57BL/6 mice [2]; high-dose LPS, F-652 4 μg tail vein, sham 659.6): 95.14
C-X-C Motif Chemokine 5 (LIX) in BAL (C57BL/6 mice [2]; low dose LPS, F-652 4 μg i.v.): 9.27 ± 6.04 pg/mL
Eotaxin in BAL (C57BL/6 mice [2]; low dose LPS, F-652 4 μg i.v.): 2.59 ± 1.93 pg/mL
Granulocyte Colony-Stimulating Factor in BAL (C57BL/6 mice [2]; low dose LPS, F-652 4 μg i.v.): 23.49 ± 9.15 pg/mL
Granulocyte-Macrophage Colony-Stimulating Factor in BAL (C57BL/6 mice [2]; low dose LPS, F-652 4 μg i.v.): 0.00 ± 0.00 pg/mL
Interferon-γ in BAL (C57BL/6 mice [2]; low dose LPS, F-652 4 μg i.v.): 1.15 ± 0.42 pg/mL
Interferon-γ-Induced Protein-10 in BAL (C57BL/6 mice [2]; low dose LPS, F-652 4 μg i.v.): 12.94 ± 3.54 pg/mL
Interleukin-1α in BAL (C57BL/6 mice [2]; low dose LPS, F-652 4 μg i.v.): 61.31 ± 12.36 pg/mL
Interleukin-1β in BAL (C57BL/6 mice [2]; low dose LPS, F-652 4 μg i.v.): 0.01 ± 0.01 pg/mL
Interleukin-2 in BAL (C57BL/6 mice [2]; low dose LPS, F-652 4 μg i.v.): 6.77 ± 1.75 pg/mL
Interleukin-3 in BAL (C57BL/6 mice [2]; low dose LPS, F-652 4 μg i.v.): 0.00 ± 0.00 pg/mL
Interleukin-4 in BAL (C57BL/6 mice [2]; low dose LPS, F-652 4 μg i.v.): 0.00 ± 0.00 pg/mL
Interleukin-5 in BAL (C57BL/6 mice [2]; low dose LPS, F-652 4 μg i.v.): 0.00 ± 0.00 pg/mL
Interleukin-6 in BAL (C57BL/6 mice [2]; low dose LPS, F-652 4 μg i.v.): 0.95 ± 0.62 pg/mL
Interleukin-7 in BAL (C57BL/6 mice [2]; low dose LPS, F-652 4 μg i.v.): 0.00 ± 0.00 pg/mL
Interleukin-9 in BAL (C57BL/6 mice [2]; low dose LPS, F-652 4 μg i.v.): 154.50 ± 37.46 pg/mL
Interleukin-10 in BAL (C57BL/6 mice [2]; low dose LPS, F-652 4 μg i.v.): 19.91 ± 6.56 pg/mL
Interleukin-12 (p40) in BAL (C57BL/6 mice [2]; low dose LPS, F-652 4 μg i.v.): 6.87 ± 1.88 pg/mL
Interleukin-12 (p70) in BAL (C57BL/6 mice [2]; low dose LPS, F-652 4 μg i.v.): 0.00 ± 0.00 pg/mL
Interleukin-13 in BAL (C57BL/6 mice [2]; low dose LPS, F-652 4 μg i.v.): 2.69 ± 0.93 pg/mL
Interleukin-15 in BAL (C57BL/6 mice [2]; low dose LPS, F-652 4 μg i.v.): 0.00 ± 0.00 pg/mL
Interleukin-17 in BAL (C57BL/6 mice [2]; low dose LPS, F-652 4 μg i.v.): 0.40 ± 0.06 pg/mL
Keratinocyte Chemoattractant/Growth Regulated Oncogene in BAL (C57BL/6 mice [2]; low dose LPS, F-652 4 μg i.v.): 9.11 ± 2.76 pg/mL
Macrophage Colony-Stimulating Factor in BAL (C57BL/6 mice [2]; low dose LPS, F-652 4 μg i.v.): 0.00 ± 0.00 pg/mL
Macrophage Inflammatory Protein-1α in BAL (C57BL/6 mice [2]; low dose LPS, F-652 4 μg i.v.): 15.62 ± 2.03 pg/mL
Macrophage Inflammatory Protein-1β in BAL (C57BL/6 mice [2]; low dose LPS, F-652 4 μg i.v.): 0.00 ± 0.00 pg/mL
Macrophage Inflammatory Protein-2 in BAL (C57BL/6 mice [2]; low dose LPS, F-652 4 μg i.v.): 20.45 ± 10.88 pg/mL
Monocyte Chemoattractant Protein in BAL (C57BL/6 mice [2]; low dose LPS, F-652 4 μg i.v.): 0.00 ± 0.00 pg/mL
Monocyte Induced by Interferon-γ in BAL (C57BL/6 mice [2]; low dose LPS, F-652 4 μg i.v.): 10.52 ± 4.73 pg/mL
Tumor Necrosis Factor-α in BAL (C57BL/6 mice [2]; low dose LPS, F-652 4 μg i.v.): 3.01 ± 1.79 pg/mL
Vascular Endothelial Growth Factor in BAL (C57BL/6 mice [2]; low dose LPS, F-652 4 μg i.v.): 3.01 ± 0.50 pg/mL
tissue dampening (G) by FOT ([3]; aged H1N1 infected mice, baseline/tidal breathing, 3-week treatment): less resistance in small airways
static compliance (Cst) from PV loops relative to PBS controls ([3]; aged mice): increased static compliance
impedance following maximization of available lung volume ([3]; following airway recruitment maneuver, aged and young): has no effect
